Experimental data from publication PMC3005221.
One block for each substance: values may come before it.

How the values were obtained:
FITC-β-Ala-β-Ala-LQDGF = assay: fluorescence polarisation
[1] = target: GST (Schistosoma japonicum) [GST: P08515]; conditions: cited from earlier work
ubiquitin (Homo sapiens) = ubiquitin (Homo sapiens) (UniProt P0CG48); conditions: cited from earlier work
FITC-β-Ala-β-Ala-IAKGG = assay: fluorescence polarisation
FITC-β-Ala-β-Ala-NALGG = assay: fluorescence polarisation
[2] = target: FITC-β-Ala-β-Ala-ALRGG (human); assay: fluorescence polarisation
[3] = target: FITC-β-Ala-β-Ala-RLRGG (human); assay: fluorescence polarisation
[4] = target: FITC-β-Ala-β-Ala-STLGG (human); assay: fluorescence polarisation
FITC-β-Ala-β-Ala-FDGFM = assay: fluorescence polarisation
[5] = target: FITC-β-Ala-β-Ala-RARGG (human); assay: fluorescence polarisation
[6] = target: FITC-β-Ala-β-Ala-RGMGG (human); assay: fluorescence polarisation
[7] = target: FITC-β-Ala-β-Ala-YGFGG (human); assay: fluorescence polarisation
[8] = target: ubiquitin C-terminal five-residue peptide (Homo sapiens); conditions: cited from earlier work

HDAC6 BUZ, sequence (Q9UBN7 1111-1209): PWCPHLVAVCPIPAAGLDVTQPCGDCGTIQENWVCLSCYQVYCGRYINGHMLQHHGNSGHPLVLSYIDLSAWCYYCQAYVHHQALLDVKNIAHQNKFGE
Ubp-M BUZ, sequence (Q9Y5T5 22-142): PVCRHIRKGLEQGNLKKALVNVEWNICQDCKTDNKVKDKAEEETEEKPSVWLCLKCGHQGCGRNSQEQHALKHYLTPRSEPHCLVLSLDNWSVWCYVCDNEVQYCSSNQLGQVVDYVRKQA

- Kd (FITC-β-Ala-β-Ala-LQDGF): 4.6 µM
Substance: GST-Abl2 SH2 domain fusion protein (from UniProt P42684 173-263) (domain or fragment)

Substance: GST (from UniProt P08515)
- Kd [1]: 0.33 µM

Substance: HDAC6 BUZ (from UniProt Q9UBN7)
- Kd (ubiquitin (Homo sapiens)): 0.06 µM

- Kd (FITC-β-Ala-β-Ala-IAKGG): 8.8 µM
- Kd (FITC-β-Ala-β-Ala-NALGG): 0.79 µM
- Kd [2]: 2.5 µM
- Kd [3]: 0.34 µM
- Kd [4]: 3.7 µM
- Kd (FITC-β-Ala-β-Ala-FDGFM): 10.8 µM
- Kd (FITC-β-Ala-β-Ala-LQDGF): 4 µM
- Kd [5]: 0.47 µM
- Kd [6]: 1.3 µM
- Kd [7]: 6.2 µM
Substance: GST-HDAC6 BUZ (from UniProt Q9UBN7 1059-1215) (domain or fragment)

Substance: Ubp-M BUZ (from UniProt Q9Y5T5)
- Kd [8]: 15.9 µM
